Data: patent US20050232933A1, “CMV-IE1 peptides and method of use” (priority 2003, published 2005)
Where two headings read alike, the source gives them in different places.

What was measured:
[1] = molecular target: HLA A*0201 molecule on the surface of T2 cells (human); assay: T2 cell HLA-A2 stabilisation, 100 µM peptide for 18 h, BB7.2 flow cytometry
[2] = molecular target: HLA A*0201 molecule on the surface of T2 cells (human); assay: T2 cell HLA-A2 stabilisation; fold over the mean of no peptide and HLA mismatch B7 peptide
[3] = molecular target: HLA A*0201 molecule on the surface of T2 cells (human); settings: remark: other sources report otherwise

| Binder | peak channel [1] | Fold Increase [2] [fold] | Fold Increase [3] [fold] | peak channel [3] |
| --- | --- | --- | --- | --- |
| VLAELVKQI (modifications not checked) [IE1p81-89] | 495 | 2 |  |  |
| LLSEFCRVL (modifications not checked) [IE1p304-312] | 433 | 1.8 |  |  |
| TPRVTGGGAM (modifications not checked) [(-)control B7 T10M] |  |  | 1 | 232 |
